Source: US7666414B2, “Methods for treating prostate cancer using modified antibodies to prostate-specific membrane antigen” (Cornell Research Foundation, Inc., priority 2001, dated 2010)
Like-named read-outs stand apart in the source and are kept apart here.

Columns and labels:
LNCaP cells = assay: In vitro pharmacodynamics, LNCaP proliferation assay; assay type: cell-based, human; settings: 6-day exposure in tissue culture
Protocol: At the end of that period the drug containing media was removed and replaced with drug free media until a total of 144 hours elapsed from the start of the experiment. The resulting effect of drug exposure on proliferation was then determined.

[1] = test system: PSMA-positive CWR22 xenografts; assay: Efficacy in PSMA-positive CWR22 xenografts; assay type: in vivo, C.B-17 scid mice; settings: for TGD: dosing interval study, five cycles
Protocol: (§1) Experiment: Male SCID mice were implanted by serial passage of CWR22 prostate tumor xenograft. […] All treatments were given intravenously. Tumor growth and animal health were continually monitored throughout the study with tumor growth measured every 3 days.
Experiment: Male C.B-17 SCID mice bearing CWR22 xenografts approximately 200 mm^3 in size received IV injections (200 μL constant volume) of the test articles according to the dose and schedule as shown in Table 22.
Male C.B-17 scid mice bearing CWR22 xenografts approximately 200 mm^3 in size received IV injections (200 μL constant volume) of the test articles according to the dose and schedule shown in the Table 23.
The objective of this study was to determine how much the dosing interval could be increased at this dosage before a loss of efficacy in terms of TGD would be observed. […] The growth delays for the other schedules were: q7d, 53.0 days; q21d, 48.0 days; and q28d, 26.9 days. Similar to other studies using the CWR22 xenograft model, no curative responses were observed, with all tumors eventually resuming growth (FIG. 18).
as §1, with “intravenously and on a schedule of every three days for 5 doses.” for “intravenously.”
as §1, with “intravenously and on a schedule of every seven days for 5 doses.” for “intravenously.”

[2] = test system: PSMA-positive 22RV1 xenografts; assay: Efficacy in castrate or intact scid mice bearing androgen-independent 22RV1 xenograft; assay type: in vivo, C.B-17 scid mice; settings: 12.93 mg/kg
Protocol: Prostate tumors can be broadly classified as either androgen-dependent or androgen-independent. […] The 22RV1 cell line was originally developed as androgen-independent and can be grown as a xenograft in C.B-17 scid mice that have been left either intact or castrated. […] C.B-17 scid mice bearing CWR22 xenografts approximately 200 mm^3 in size received IV injections (200 μL constant volume) of the test articles according to the dosage and schedule shown in the Table 24.

LNCaP = assay: Binding to LNCaP by FACS; parameters: species or system human
CD-1 mice = test system: CD-1 mice
From the text: Use of both mice and cynomolgus monkeys for nonclinical testing allowed comparison of exposure and toxicity across species on the basis of body surface area (mg/m^2), and thus aided in selecting the SSD for the proposed Phase 1 clinical trial.

[3] = male mice; for AUC, analyte Total deJ591 / AUC, analyte deJ591-DM1: 0-336 hours
[4] = test system: micronucleated polychromatic erythrocytes; settings: 30, 48, and 90 mg/m^2
[5] = test system: micronucleated polychromatic erythrocytes; assay: Mouse micronucleus test; settings: in vivo
[6] = Pharmacokinetics of deJ591 and deJ591-DM1 in cynomolgus monkeys
[7] = MLN2704 300 mg/m^2 (100 mg/kg), single IV, CD-1 mice
[8] = single IV deJ591-DM1 10 mg/kg (30 mg/m^2)
[9] = single IV deJ591-DM1 30 mg/kg (90 mg/m^2)
[10] = single IV deJ591-DM1 90 mg/kg (270 mg/m^2)
[11] = study CTBR 57355, deJ591-DM1 6 mg/kg (72 mg/m^2)
[12] = study CTBR 57355, deJ591-DM1 10 mg/kg (120 mg/m^2)
[13] = study CTBR 57355, deJ591-DM1 16 mg/kg ([…]^2)
[14] = study CTBR 57355, deJ591-DM1 30 mg/kg (360 mg/m^2)
[15] = study CTBR 57355, mean over dosages
[16] = study KLA W-171, deJ591-DM1 6 mg/kg (72 mg/m^2)

Substance: deJ591-DM1: deJ591 conjugated via SPP disulfide linker to the maytansinoid DM1, DM1/antibody ratio about 3.5
- IC50 on PSMA-positive LNCaP cells (LNCaP cells): 0.21 µg/mL
- return to normal growth kinetics following the last dose ([1]; 7.25 mg/kg every seven days for 5 doses): approximately 10 days
- Tumor Growth Delay ([1]; 7.28 mg/kg (120 μg/kg DM1-equivalents), q3dX5, IV): 27.1 days
- Tumor Growth Delay ([1]; 7.28 mg/kg (120 μg/kg DM1-equivalents), qdX5, IV): 19.6 days
- tumor growth ([1]; 14.5 mg/kg every seven days for 5 doses): suppression of tumor growth with some reduction from the initial tumor volume
- tumor growth ([1]; 14.5 mg/kg, 7 and 14 day dosing interval): apparent block in tumor growth with a resumption of normal growth kinetics approximately 30 days after the last dose
- tumor growth ([1]; 14.5 mg/kg, 21 or 28 day dosing interval): slowed growth
- Tumor Growth Delay ([1]; 14.56 mg/kg (240 μg/kg DM1-equivalents), q3dX5, IV): 36.7 days
- Tumor Growth Delay ([1]; 14.56 mg/kg (240 μg/kg DM1-equivalents), qdX5, IV): 26.9 days
- Tumor Growth Delay ([1]; Comparison II, 4.8 mg/kg (90 μg/kg DM1-equivalents), q3dX5): 31.9 days
- Tumor Growth Delay ([1]; Comparison II, 6.5 mg/kg (120 μg/kg DM1-equivalents), q3dX5): 37.8 days
- Tumor Growth Delay ([1]; Comparison II, 6.5 mg/kg (120 μg/kg DM1-equivalents), q7dX5): 33.9 days
- Tumor Growth Delay ([1]; Comparison II, 9.7 mg/kg (180 μg/kg DM1-equivalents), q3dX5): 42.7 days
- Tumor Growth Delay ([1]; Comparison II, 12.93 mg/kg (240 μg/kg DM1-equivalents), q3dX5): 46.4 days
- Tumor Growth Delay ([1]; Comparison II, 12.93 mg/kg (240 μg/kg DM1-equivalents), q7dX5): 66.8 days
- associated toxicity ([1]; all dosages, Comparison I): less for all dosages of deJ591-DM1 relative to maytansine alone
- curative effect ([1]; doses and schedules of Comparison I): non-curative
- TGD ([1]; 12.93 mg/kg, q7d): 53.0 days
- TGD ([1]; 12.93 mg/kg, q14d): 75.7 days
- TGD ([1]; 12.93 mg/kg, q21d): 48.0 days
- TGD ([1]; 12.93 mg/kg, q28d): 26.9 days
- Efficacious dosage in SCID mouse xenografts, DM1-Equivalents received ([1]; mouse, in vivo): ~0.72 mg/m^2
- In vivo activity - mouse xenograft model ([1]; reference standard batch): Delays tumor growth
- effect on large tumors, 500 to 2000 mm^3 ([1]; second course, 12.93 mg/kg): potent regressions
- Tumor Growth Delay ([2]; Castrate Mice, q3dX5): 26.3 days
- Tumor Growth Delay ([2]; Intact Mice, q3dX5): 13.1 days
- Tumor Growth Delay ([2]; Intact Mice, q7dX5): 7.8 days
- EC50 (LNCaP; listed as 1552-60S): 7.9 nM
- EC50 (LNCaP; listed as N067020302): 6.9 nM
- Degree of Toxicity and Major Target Organs (CD-1 mice; 30 mg/m^2 (10 mg/kg)): Mild toxicity to testes.
- Degree of Toxicity and Major Target Organs (CD-1 mice; 48 mg/m^2 (16 mg/kg)): Mild to moderate toxicity to reproductive
- Degree of Toxicity and Major Target Organs (CD-1 mice; 90 mg/m^2 (30 mg/kg)): Mild to moderate toxicity to reproductive,
- Degree of Toxicity and Major Target Organs (CD-1 mice; 300 mg/m^2 (100 mg/kg)): Moderate to severe toxicity to reproductive,
- mortality (CD-1 mice; 480 mg/m^2 (160 mg/kg)): 100% mortality attributed to severe
- Degree of Toxicity and Major Target Organs (CD-1 mice; MLN2704 30 mg/m^2 (10 mg/kg), single IV, CD-1 mice): Mild toxicity to testes.
- Degree of Toxicity and Major Target Organs (CD-1 mice; MLN2704 48 mg/m^2 (16 mg/kg), single IV, CD-1 mice): Mild to moderate toxicity to
- elevated AST and ALT values (CD-1 mice; MLN2704 90 mg/m^2 (30 mg/kg), single IV, CD-1 mice): mitosis/necrosis of liver; slightly
- elevated AST and ALT values (CD-1 mice; MLN2704 180 mg/m^2 (60 mg/kg), single IV, CD-1 mice): mitosis/necrosis of liver; moderately
- elevated AST and ALT values (CD-1 mice; [7]): mitosis/necrosis of liver; markedly
- mortality (CD-1 mice; [7]): 30% mortality attributed to severe
- Degree of Toxicity and Major Target Organs (CD-1 mice; MLN2704 300 mg/m^2 (100 mg/kg), single IV, CD-1 mice, survivors): toxicity. Moderate to severe toxicity to
- mortality (CD-1 mice; MLN2704 480 mg/m^2 (160 mg/kg), single IV, CD-1 mice): 100% mortality attributed to severe
- Mouse LD10 (female) (CD-1 mice; calculated): 95 mg/kg
- Mouse LD10 (female), DM1-Equivalents received (CD-1 mice; calculated): 5.13 mg/m^2
- Mouse LD10 (male) (CD-1 mice; calculated): 96 mg/kg
- Mouse LD10 (male), DM1-Equivalents received (CD-1 mice; calculated): 5.18 mg/m^2
- lower testes weights (CD-1 mice; lowest tested dosage 30 mg/m^2): 10%
- Mouse LD100 (CD-1 mice; mouse, in vivo): 160 mg/kg
- Mouse MTD (CD-1 mice; mouse, in vivo): 60 mg/kg
- Mouse STD, DM1-Equivalents received (CD-1 mice; mouse, in vivo): 5.40 mg/m^2
- LD100 (CD-1 mice; single IV, CD-1 mice): 160 mg/kg
- MTD (CD-1 mice; single IV, CD-1 mice): 60 mg/kg
- LD10 (females) (CD-1 mice; single IV, CD-1 mice, females, calculated): 95 mg/kg
- LD10 (males) (CD-1 mice; single IV, CD-1 mice, males, calculated): 96 mg/kg
- Tmax, analyte Total deJ591 [3, 8]: 30 min
- Tmax, analyte deJ591-DM1 [3, 8]: 30 min
- AUC, analyte Total deJ591 [3, 8]: 8920 µg·h/mL
- AUC, analyte deJ591-DM1 [3, 8]: 3260 µg·h/mL
- Tmax, analyte Total deJ591 [3, 9]: 4.8 min
- Tmax, analyte deJ591-DM1 [3, 9]: 4.8 min
- AUC, analyte Total deJ591 [3, 9]: 21000 µg·h/mL
- AUC, analyte deJ591-DM1 [3, 9]: 5960 µg·h/mL
- Tmax, analyte Total deJ591 [3, 10]: 4.8 min
- Tmax, analyte deJ591-DM1 [3, 10]: 4.8 min
- AUC, analyte Total deJ591 [3, 10]: 62300 µg·h/mL
- AUC, analyte deJ591-DM1 [3, 10]: 30600 µg·h/mL
- increases in micronucleated polychromatic erythrocytes [4]: positive
- Lowest genotoxic dosage in ICR mice, DM1-Equivalents received [5]: 0.54 mg/m^2
- Tmax, analyte Total deJ591 [6, 11]: 60 min
- Tmax, analyte deJ591-DM1 [6, 11]: 48 min
- AUC, analyte Total deJ591 [6, 11]: 17200 µg·h/mL
- AUC, analyte deJ591-DM1 [6, 11]: 6720 µg·h/mL
- Tmax, analyte deJ591-DM1 [6, 12]: 36 min
- t1/2, analyte Total deJ591 [6, 12]: 200 h
- AUC, analyte Total deJ591 [6, 12]: 31700 µg·h/mL
- AUC, analyte deJ591-DM1 [6, 12]: 10600 µg·h/mL
- Tmax, analyte Total deJ591 [6, 13]: 54 min
- Tmax, analyte deJ591-DM1 [6, 13]: 48 min
- AUC, analyte Total deJ591 [6, 13]: 44400 µg·h/mL
- AUC, analyte deJ591-DM1 [6, 13]: 15600 µg·h/mL
- Tmax, analyte deJ591-DM1 [6, 14]: 48 min
- AUC, analyte Total deJ591 [6, 14]: 95000 µg·h/mL
- AUC, analyte deJ591-DM1 [6, 14]: 33500 µg·h/mL
- Tmax, analyte Total deJ591 [6, 15]: 54 min
- Tmax, analyte deJ591-DM1 [6, 15]: 42 min
- Tmax, analyte Total deJ591 [6, 16]: 300 min
- Tmax, analyte deJ591-DM1 [6, 16]: 60 min
- AUC, analyte Total deJ591 [6, 16]: 19900 µg·h/mL
- AUC, analyte deJ591-DM1 [6, 16]: 5020 µg·h/mL
